According to US20070128661A1 (Harvard, published 2007):

Key:
RelA (NF-kB p65) = conditions: ChIP real-time PCR; binding increase in T-bet-/- Th1 cells versus wt
[1] = biological target: T1, Flag-tagged T-bet (wild type), immunoprecipitated from 293T cells (UniProt Q9JKD8)
T1 sequence: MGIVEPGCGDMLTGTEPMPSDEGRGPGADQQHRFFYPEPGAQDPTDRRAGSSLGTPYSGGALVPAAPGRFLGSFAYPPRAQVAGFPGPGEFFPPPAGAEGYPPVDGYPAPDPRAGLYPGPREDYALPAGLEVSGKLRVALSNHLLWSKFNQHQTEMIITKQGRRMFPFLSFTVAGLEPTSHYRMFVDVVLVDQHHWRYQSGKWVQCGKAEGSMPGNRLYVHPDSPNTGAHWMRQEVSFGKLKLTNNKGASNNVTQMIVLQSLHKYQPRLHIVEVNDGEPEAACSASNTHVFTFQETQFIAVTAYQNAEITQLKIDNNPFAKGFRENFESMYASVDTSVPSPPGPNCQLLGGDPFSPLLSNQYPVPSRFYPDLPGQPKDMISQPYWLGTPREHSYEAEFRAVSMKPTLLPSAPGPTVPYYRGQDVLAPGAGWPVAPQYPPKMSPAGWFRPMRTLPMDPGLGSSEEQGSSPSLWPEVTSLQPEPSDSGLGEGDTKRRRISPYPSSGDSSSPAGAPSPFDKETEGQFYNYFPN

[2] = biological target: T2, Flag-tagged T-bet S498A control mutant, immunoprecipitated from 293T cells (UniProt Q9JKD8)
T2 sequence: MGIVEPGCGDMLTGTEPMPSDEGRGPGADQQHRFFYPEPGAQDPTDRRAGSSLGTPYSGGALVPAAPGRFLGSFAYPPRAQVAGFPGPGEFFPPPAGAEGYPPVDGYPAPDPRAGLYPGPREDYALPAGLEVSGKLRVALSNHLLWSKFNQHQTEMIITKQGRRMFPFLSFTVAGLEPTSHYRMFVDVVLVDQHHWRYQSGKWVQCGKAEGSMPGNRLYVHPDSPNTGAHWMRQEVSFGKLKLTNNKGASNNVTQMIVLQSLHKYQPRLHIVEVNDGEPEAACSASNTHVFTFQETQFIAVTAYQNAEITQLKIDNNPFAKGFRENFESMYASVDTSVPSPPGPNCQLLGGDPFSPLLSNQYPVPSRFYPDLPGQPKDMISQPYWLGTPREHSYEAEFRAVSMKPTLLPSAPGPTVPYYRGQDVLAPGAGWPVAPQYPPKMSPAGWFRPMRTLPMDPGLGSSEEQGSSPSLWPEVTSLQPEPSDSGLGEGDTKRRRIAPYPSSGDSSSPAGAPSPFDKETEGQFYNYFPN

[3] = biological target: T3, Flag-tagged T-bet S508A mutant, immunoprecipitated from 293T cells (UniProt Q9JKD8)
T3 sequence: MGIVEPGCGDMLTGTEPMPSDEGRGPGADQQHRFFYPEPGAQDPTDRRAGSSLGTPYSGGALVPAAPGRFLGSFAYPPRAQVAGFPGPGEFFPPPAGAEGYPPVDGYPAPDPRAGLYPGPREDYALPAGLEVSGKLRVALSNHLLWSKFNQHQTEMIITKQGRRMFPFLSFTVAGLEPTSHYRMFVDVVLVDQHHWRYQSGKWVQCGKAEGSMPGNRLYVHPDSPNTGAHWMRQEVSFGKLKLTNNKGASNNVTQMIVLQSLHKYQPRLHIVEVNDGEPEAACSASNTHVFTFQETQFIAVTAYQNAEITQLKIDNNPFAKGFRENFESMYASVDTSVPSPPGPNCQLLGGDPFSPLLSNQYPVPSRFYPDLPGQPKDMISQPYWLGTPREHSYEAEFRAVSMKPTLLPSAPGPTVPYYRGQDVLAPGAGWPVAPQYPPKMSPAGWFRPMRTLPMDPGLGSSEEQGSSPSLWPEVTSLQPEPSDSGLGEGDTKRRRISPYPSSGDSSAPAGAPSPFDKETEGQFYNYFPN

[4] = biological target: endogenous RelA in mouse Th1 cells (mouse, UniProt Q04207 1-549); assay: cell-based or functional assay
Sequence of endogenous RelA in mouse Th1 cells (Q04207 whole entry): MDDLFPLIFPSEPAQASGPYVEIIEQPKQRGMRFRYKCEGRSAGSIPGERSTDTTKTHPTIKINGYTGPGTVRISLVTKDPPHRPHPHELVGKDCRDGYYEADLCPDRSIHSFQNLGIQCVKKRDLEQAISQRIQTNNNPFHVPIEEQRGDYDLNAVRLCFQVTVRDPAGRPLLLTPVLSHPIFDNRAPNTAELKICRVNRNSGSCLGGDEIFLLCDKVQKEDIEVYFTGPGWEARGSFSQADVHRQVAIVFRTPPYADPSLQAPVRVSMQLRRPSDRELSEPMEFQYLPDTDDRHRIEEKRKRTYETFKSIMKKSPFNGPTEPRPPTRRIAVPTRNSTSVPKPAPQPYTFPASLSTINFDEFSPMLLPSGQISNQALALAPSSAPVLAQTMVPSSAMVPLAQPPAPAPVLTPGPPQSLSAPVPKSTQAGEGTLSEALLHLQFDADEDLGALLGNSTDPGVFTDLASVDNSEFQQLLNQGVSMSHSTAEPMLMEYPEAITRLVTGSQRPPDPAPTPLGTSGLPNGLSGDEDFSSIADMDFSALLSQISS

Row | Molecule | in vitro phosphorylation of T-bet (γ-[32P]ATP, autoradiography) [1] | in vitro phosphorylation of T-bet (γ-[32P]ATP, autoradiography) [2] | in vitro phosphorylation of T-bet (γ-[32P]ATP, autoradiography) [3] | further results
1 | IL-2 promoter chromatin (ChIP amplicon) | – | – | – | binding signal (RelA (NF-kB p65)): 4.5 fold
2 | PKA (recombinant) | T-bet was also phosphorylated by PKA but with 1000-fold lesser efficiency than CKI | PKA-induced phosphorylation was not different among the wt, S508A and S498A T-bet proteins | PKA-induced phosphorylation was not different among the wt, S508A and S498A T-bet proteins | –
3 | active ERK (recombinant) | CKI, but not active ERK, phosphorylated T-bet protein in vitro | – | – | –
4 | casein kinase I (recombinant) | CKI, but not active ERK, phosphorylated T-bet protein in vitro | CKI-mediated phosphorylation of the S508A mutant, but not the S498A control mutant, was dramatically reduced compared to wt | CKI-mediated phosphorylation of the S508A mutant, but not the S498A control mutant, was dramatically reduced compared to wt | –
5 | glycogen synthase kinase-3 (recombinant) | – | – | – | in vitro phosphorylation of T-bet by GSK-3 after prephosphorylation with CKI (γ-[32P]ATP) [1]: Hyperphosphorylation of T-bet by GSK-3 was apparent; in vitro phosphorylation of T-bet by GSK-3 after prephosphorylation with CKI (γ-[32P]ATP) [2]: GSK-3 induced wt levels of phosphorylation in the S498A mutant; in vitro phosphorylation of T-bet by GSK-3 after prephosphorylation with CKI (γ-[32P]ATP) [3]: GSK-3-mediated phosphorylation was markedly decreased in the S508A mutant
6 | endogenous T-bet in mouse Th1 cells (other, UniProt Q9JKD8 1-530, looked up, phosphoserine at S508 found by mass spectrometry in primary Th1 cells) MGIVEPGCGDMLTGTEPMPSDEGRGPGADQQHRFFYPEPGAQDPTDRRAGSSLGTPYSGGALVPAAPGRFLGSFAYPPRAQVAGFPGPGEFFPPPAGAEGYPPVDGYPAPDPRAGLYPGPREDYALPAGLEVSGKLRVALSNHLLWSKFNQHQTEMIITKQGRRMFPFLSFTVAGLEPTSHYRMFVDVVLVDQHHWRYQSGKWVQCGKAEGSMPGNRLYVHPDSPNTGAHWMRQEVSFGKLKLTNNKGASNNVTQMIVLQSLHKYQPRLHIVEVNDGEPEAACSASNTHVFTFQETQFIAVTAYQNAEITQLKIDNNPFAKGFRENFESMYASVDTSVPSPPGPNCQLLGGDPFSPLLSNQYPVPSRFYPDLPGQPKDMISQPYWLGTPREHSYEAEFRAVSMKPTLLPSAPGPTVPYYRGQDVLAPGAGWPVAPQYPPKMSPAGWFRPMRTLPMDPGLGSSEEQGSSPSLWPEVTSLQPEPSDSGLGEGDTKRRRISPYPSSGDSSSPAGAPSPFDKETEGQFYNYFPN | – | – | – | IL-2 promoter binding of RelA by ChIP with real-time PCR, T-bet-/- versus wt Th1 cells [4]: 4.5 fold
